Results taken from patent US20240294593A1 (Genentech, published 2024).
Numbering of substitutions follows the chain as printed. Names and notes keep the numbering of the source.

T1: cynomolgus PD-1-His (cynomolgus monkey)
T1 chain: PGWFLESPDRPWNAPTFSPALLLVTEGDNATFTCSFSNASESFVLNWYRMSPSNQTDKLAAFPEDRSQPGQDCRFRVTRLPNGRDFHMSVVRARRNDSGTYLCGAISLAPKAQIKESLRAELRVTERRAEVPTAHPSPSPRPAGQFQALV

B1: XENP28536 (mAb C[PD-1]_H1L1, bivalent human IgG1) (antibody, V domains shown)
VH: EVQLVESGGGLVQPGGSLRLSCAASGFTFSSFGMHWVRQAPGKGLEWVSYISSGSSIIYYADSVKGRFTISRDNAKNSLYLQMNSLRAEDTAVYYCARGGRLVWSPDYWGQGTLVTVSS
VL: DIVMTQSPDSLAVSLGERATINCKSSQSLLNSGNQKNYLTWYQQKPGQPPKLLIYWASTRESGVPDRFTGSGSGTDFTLTISSLQAEDVAVYYCQNDYSYPFTFGSGTKLEIK
notes: Bivalent human IgG1 with E233P/L234V/L235A/G236del/S267K
B2: H1.221_L1.1 (XENP32837) (antibody, human IgG1, kappa, V domains shown)
VH: B1 VH with L102R, W104F
VL: DIVMTQSPDSLAVSLGERATINCKSSQSLLHSGNQKNYLTWYQQKPGQPPKLLIYWASTRESGVPDRFTGSGSGTDFTLTISSLQAEDVAVYYCQNDYSYPFTFGSGTKLEIKR
notes: VH substitution L110R/W112F (Xencor #); L98R/W100F (Kabat); also called mAb C[PD1]_H1.221_L1.1_IgG1_PVA_/S267K
B3: H1.220_L1.1 (XENP32836) (antibody, human IgG1, kappa, V domains shown)
VH: B1 VH with V103Y, W104F
VL: B2 VL
notes: VH substitution V111Y/W112F (Xencor #); V99Y/W100F (Kabat); also called mAb C[PD1]_H1.220_L1.1_IgG1_PVA_/S267K
B4: H1.216_L1.1 (XENP32832) (antibody, human IgG1, kappa, V domains shown)
VH: B1 VH with R101S, L102V, V103L, W104F
VL: B2 VL
notes: VH substitution R109S/L110V/V111L/W112F (Xencor #); R97S/L98V/V99L/W100F (Kabat); also called mAb C[PD1]_H1.216_L1.1_IgG1_PVA_/S267K
B5: H1.218_L1.1 (XENP32834) (antibody, human IgG1, kappa, V domains shown)
VH: B1 VH with L102Q, W104F, S105T
VL: B2 VL
notes: VH substitution L110Q/W112F/S113T (Xencor #); L98Q/W100F/S100aT (Kabat); also called mAb C[PD1]_H1.218_L1.1_IgG1_PVA_/S267K
B6: H1.223_L1.1 (XENP32839) (antibody, human IgG1, kappa, V domains shown)
VH: B1 VH with R101H, L102Q, W104F
VL: B2 VL
notes: VH substitution R109H/L110Q/W112F (Xencor #); R97H/L98Q/W100F (Kabat); also called mAb C[PD1]_H1.223_L1.1_IgG1_PVA_/S267K
B7: H1.222_L1.1 (XENP32838) (antibody, human IgG1, kappa, V domains shown)
VH: B1 VH with W104L, P106S
VL: B2 VL
notes: VH substitution W112L/P114S (Xencor #) but W100F/P100bS in Kabat; also called mAb C[PD1]_H1.222_L1.1_IgG1_PVA_/S267K
B8: H1.217_L1.1 (XENP32833) (antibody, human IgG1, kappa, V domains shown)
VH: B1 VH with V103S, W104F
VL: B2 VL
notes: VH substitution V111S/W112F (Xencor #); V99S/W100F (Kabat); also called mAb C[PD1]_H1.217_L1.1_IgG1_PVA_/S267K
B9: H1.219_L1.1 (XENP32835) (antibody, human IgG1, kappa, V domains shown)
VH: B1 VH with R101S, V103Y, W104L
VL: B2 VL
notes: VH substitution R109S/V111Y/W112L (Xencor #) but R97S/V99Y/W100F in the Kabat column: the two columns disagree; also called mAb C[PD1]_H1.219_L1.1_IgG1_PVA_/S267K
B10: H1.214_L1.1 (XENP32830) (antibody, human IgG1, kappa, V domains shown)
VH: B1 VH with R101L, V103I, W104L
VL: B2 VL
notes: VH substitution R109L/V111I/W112L (Xencor #) but R97L/V99I/W100F in the Kabat column: the two columns disagree; also called mAb C[PD1]_H1.214_L1.1_IgG1_PVA_/S267K
B11: H1.215_L1.1 (XENP32831) (antibody, human IgG1, kappa, V domains shown)
VH: B1 VH with G100A, W104F
VL: B2 VL
notes: VH substitution G108A/W112F (Xencor #); G96A/W100F (Kabat); also called mAb C[PD1]_H1.215_L1.1_IgG1_PVA_/S267K
B12: H1.224_L1.1 (XENP32840) (antibody, human IgG1, kappa, V domains shown)
VH: B1 VH with L102R, V103L, W104F
VL: B2 VL
notes: VH substitution L110R/V111L/W112F (Xencor #); L98R/V99L/W100F (Kabat); also called mAb C[PD1]_H1.224_L1.1_IgG1_PVA_/S267K
B13: H1.213_L1.1 (XENP32829) (antibody, human IgG1, kappa, V domains shown)
VH: B1 VH with L102S, V103I, W104F
VL: B2 VL
notes: VH substitution L110S/V111I/W112F (Xencor #); L98S/V99I/W100F (Kabat); also called mAb C[PD1]_H1.213_L1.1_IgG1_PVA_/S267K
B14: XENP28539 (humanized variant of mAb C, bivalent human IgG1) (antibody, V domains shown)
VH: B1 VH with Q13K, S49G, S63P, A75S, S78T, R87K, A88T
VL: DIVMTQSPLSLPVTPGEPASISCRSSQSLLNSGNQKNYLTWYLQKPGQPPQLLIYWASTRESGVPDRFTGSGSGTDFTLKISRVEAEDVGVYYCQNDYSYPFTFGSGTKLEIKR
notes: Human IgG1 with E233P/L234V/L235A/G236del/S267K
B15: XENP28538 (humanized variant of mAb C, bivalent human IgG1) (antibody, V domains shown)
VH: B1 VH with Q13K, S49G, S63P, A75S, S78T, R87K, A88T
VL: B2 VL with H31N
notes: as for B14
B16: XENP28519 (humanized mAb A, bivalent mAb) (antibody, human IgG1, kappa, V domains shown)
VH: QVQLQESGPGLVKPSQTLSLTCTVSGHSITSDYAWNWIRQPPGKKLEWIGYISYSGYTTYNPSLKSRVTISRDTSKNQFSLKLSSVTAADTAVYFCARDLDYGPWFAYWGQGTLVTVSS
VL: DIQMTQSPSSLSASVGDRVTITCRASENIHNYLAWYQQKPGKSPKLLVYNVKTLADGVPSRFSGSGSGTDYTLTISSLQPEDFATYYCQHFWSSPWTFGGGTKVEIKR

Biological target: T1, cynomolgus PD-1-His
Assay: Octet (BLI); antibody captured on anti-human Fc (AHC) biosensors and dipped into multiple concentrations of cynomolgus PD-1-His

Binder	Kd
B1	35.8 nM

Biological target: T2, human PD-1-His (human, UniProt Q15116 25-167, limits assumed)
T2 construct: Antigen of the Octet assays; not shown: His tag
Assay: Octet (BLI), AHC biosensors capture the bivalent mAb, dipped into multiple concentrations of PD-1; KDapp per legend
From the text: (§1) In particular, anti-human IgG-Fc (AHC) biosensors were used to capture the test articles and dipped into multiple concentrations of PD-1.

T2 sequence (Q15116 25-167 limits assumed): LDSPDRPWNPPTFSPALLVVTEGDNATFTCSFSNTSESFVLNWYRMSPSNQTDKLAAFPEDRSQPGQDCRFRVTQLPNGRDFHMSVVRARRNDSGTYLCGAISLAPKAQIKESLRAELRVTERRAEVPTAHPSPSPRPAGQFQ

Binder	Kd
B2	35.1 nM
B3	39.9 nM
B4	11.4 nM
B5	19.6 nM
B6	35.4 nM
B7	49.4 nM
B8	161 nM
B9	24.8 nM
B10	36.7 nM
B11	44.9 nM
B12	70 nM
B13	27.6 nM

Biological target: T2, human PD-1-His
Assay: Octet (BLI), AHC capture of the bivalent mAb, PD-1 in solution
From the text: as §1

Binder	koff	kon
B2	0.00477 s⁻¹	136000 M⁻¹ s⁻¹
B3	0.00557 s⁻¹	140000 M⁻¹ s⁻¹
B4	0.00218 s⁻¹	193000 M⁻¹ s⁻¹
B5	0.0013 s⁻¹	66500 M⁻¹ s⁻¹
B6	0.00436 s⁻¹	123000 M⁻¹ s⁻¹
B7	0.00565 s⁻¹	114000 M⁻¹ s⁻¹
B8	0.023 s⁻¹	143000 M⁻¹ s⁻¹
B9	0.00489 s⁻¹	197000 M⁻¹ s⁻¹
B10	0.0061 s⁻¹	166000 M⁻¹ s⁻¹
B11	0.00482 s⁻¹	107000 M⁻¹ s⁻¹
B12	0.00416 s⁻¹	59400 M⁻¹ s⁻¹
B13	0.0029 s⁻¹	105000 M⁻¹ s⁻¹

Biological target: T2, human PD-1-His
Assay: Octet (BLI); antibody captured on anti-human Fc (AHC) biosensors and dipped into multiple concentrations of human PD-1-His

Binder	binding result	Kd
B14	no binding	
B15	no binding	
B16		11.9 nM
